# Source: US20250218531A1 (ABSCI, published 2025)
# B1: AI-Designed Binder (de novo casirivimab HCDR3 variant) (Fab, V domains shown)
# VH: QVQLVESGGGLVKPGGSLRLSCAASGFTFSDYYMSWIRQAPGKGLEWVSYITYSGSTIYYADSVKGRFTISRDNAKSSLYLQMNSLRAEDTAVYYCARDWGQTWDSYFDYWGQGTLVTVSS
# VL: DIQMTQSPSSLSASVGDRVTITCQASQDITNYLNWYQQKPGKAPKLLIYAASNLETGVPSRFSGSGSGTDFTFTISGLQPEDIATYYCQQYDNLPLTFGGGTKVEIKR
# notes: Fab format
# Columns and labels:
# [1] = target: T1, SARS-COV2 Spike RBD, Beta (SARS-CoV-2, UniProt P0DTC2 319-541); experiment: SPR; 'N/A indicates a lack of binding'
# T1 construct: domain: RBD
# [2] = target: T2, SARS-COV2 Spike RBD, Delta (SARS-CoV-2, UniProt P0DTC2 319-541); experiment: SPR; 'N/A indicates a lack of binding'
# T2 construct: domain: RBD
binder,measurement,setting,value
B1,binding result,[1],no binding
same,binding result,[2],no binding
